Laboratory results from patent US20110151448A1 (GENEPROTECH, published 2011).
Side chains are listed from the residue outwards. Ends that are not written are not given here. hairpin oligonucleotide = not defined here

T1: RAD51 (UniProt Q08297 1-339, limits assumed)
T1 sequence (looked up): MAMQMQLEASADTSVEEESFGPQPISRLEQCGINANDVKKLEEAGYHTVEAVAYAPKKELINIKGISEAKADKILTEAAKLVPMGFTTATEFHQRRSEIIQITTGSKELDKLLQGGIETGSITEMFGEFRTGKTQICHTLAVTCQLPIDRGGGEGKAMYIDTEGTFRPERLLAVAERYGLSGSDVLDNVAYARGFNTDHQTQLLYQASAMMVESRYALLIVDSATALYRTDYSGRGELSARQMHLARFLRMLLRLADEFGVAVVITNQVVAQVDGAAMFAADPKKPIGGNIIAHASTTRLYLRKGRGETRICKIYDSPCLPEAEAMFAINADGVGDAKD

B1: BRC5 negative bait peptide (mouse BRCA2 BRC5 repeat with an added C-terminal cysteine), as attached to the targeting vector BRC5-HPRT-NLS (peptide)
peptide: SSYPVTEDSALAYYTEDSRKTCVRESSLSKGRKWLREQGDKLGTRNTIKIEC([sulfo‑SMCC-hairpin oligonucleotide])
modifications: reading uncertain; also: conjugated via oligonucleotide to HPRT targeting DNA
B2: BRC3 bait peptide (mouse BRCA2 residues 1391-1458 with an added C-terminal cysteine), as attached to the targeting vector BRC3-HPRT-NLS (peptide)
peptide: ERNIKEFNISFQTASGKNTRVSKESLNKSVNIFNRETDELTVISDSLNSKILHGINKDKMHTSSHKKAC([sulfo‑SMCC-hairpin oligonucleotide])
modifications: reading uncertain; also: conjugated via oligonucleotide to HPRT targeting DNA
B3: RAD52 bait peptide (mouse RAD52 residues 294-344 with an added C-terminal cysteine), as attached to the targeting vector RAD52-HPRT-NLS (peptide)
peptide: VAAKHAAVLPAPPKHSTPVTAASELLQEKVVFPDNLEENLEMWDLTPDLEDC([sulfo‑SMCC-hairpin oligonucleotide])
modifications: reading uncertain; also: conjugated via oligonucleotide to HPRT targeting DNA

Legend:
RAD51 [1] = target: T1, RAD51; test: cell-based or functional assay
RAD51 [2] = target: T1, RAD51; test: cell-based or functional assay; remark: listed apart in the source

Binder | Fold increase of targeted recombination = ratio of control (HP-HPRT)/ratio of expt. vector (Exp 3, F9 cells) (RAD51 [1]) | increase in the relative recombination frequency compared to control (HP-HPRT) (RAD51 [2]) | Fold increase of targeted recombination = ratio of control (HP-HPRT)/ratio of expt. vector (Exp 4, F9 cells) (RAD51 [1]) | Fold increase of targeted recombination = ratio of control (HP-HPRT)/ratio of expt. vector (Exp 5, F9 cells) (RAD51 [1]) | increase in targeted homologous recombination relative to a conventional targeting vector (HPRT, ends not protected) (RAD51 [2]) | increase of targeted recombination compared with the control vector (HP-HPRT) (RAD51 [2]) | Fold increase of targeted recombination = ratio of control (HP-HPRT)/ratio of expt. vector (Exp 1, F9 cells) (RAD51 [1]) | Fold increase of targeted recombination = ratio of control (HP-HPRT)/ratio of expt. vector (Exp 2, F9 cells) (RAD51 [1])
B1 | 1.1 fold |  |  |  |  |  |  | 
B2 |  | 1.5 fold | 2.2 fold | 2.3 fold |  |  |  | 
B3 |  |  | 2.2 fold |  | 3.5 fold | 2.6 fold | 2 fold | 2.2 fold
